The target in the assay is T1, Human EphB4 (Genbank ID No. NP_004435) (human, UniProt P54760 16-987, limits assumed).
T1 construct: Detected as denatured protein on Western blot (MAb265), on tissue sections (MAb131) and by immunoprecipitation (MAb47); also called EphB4 receptor
T1 sequence: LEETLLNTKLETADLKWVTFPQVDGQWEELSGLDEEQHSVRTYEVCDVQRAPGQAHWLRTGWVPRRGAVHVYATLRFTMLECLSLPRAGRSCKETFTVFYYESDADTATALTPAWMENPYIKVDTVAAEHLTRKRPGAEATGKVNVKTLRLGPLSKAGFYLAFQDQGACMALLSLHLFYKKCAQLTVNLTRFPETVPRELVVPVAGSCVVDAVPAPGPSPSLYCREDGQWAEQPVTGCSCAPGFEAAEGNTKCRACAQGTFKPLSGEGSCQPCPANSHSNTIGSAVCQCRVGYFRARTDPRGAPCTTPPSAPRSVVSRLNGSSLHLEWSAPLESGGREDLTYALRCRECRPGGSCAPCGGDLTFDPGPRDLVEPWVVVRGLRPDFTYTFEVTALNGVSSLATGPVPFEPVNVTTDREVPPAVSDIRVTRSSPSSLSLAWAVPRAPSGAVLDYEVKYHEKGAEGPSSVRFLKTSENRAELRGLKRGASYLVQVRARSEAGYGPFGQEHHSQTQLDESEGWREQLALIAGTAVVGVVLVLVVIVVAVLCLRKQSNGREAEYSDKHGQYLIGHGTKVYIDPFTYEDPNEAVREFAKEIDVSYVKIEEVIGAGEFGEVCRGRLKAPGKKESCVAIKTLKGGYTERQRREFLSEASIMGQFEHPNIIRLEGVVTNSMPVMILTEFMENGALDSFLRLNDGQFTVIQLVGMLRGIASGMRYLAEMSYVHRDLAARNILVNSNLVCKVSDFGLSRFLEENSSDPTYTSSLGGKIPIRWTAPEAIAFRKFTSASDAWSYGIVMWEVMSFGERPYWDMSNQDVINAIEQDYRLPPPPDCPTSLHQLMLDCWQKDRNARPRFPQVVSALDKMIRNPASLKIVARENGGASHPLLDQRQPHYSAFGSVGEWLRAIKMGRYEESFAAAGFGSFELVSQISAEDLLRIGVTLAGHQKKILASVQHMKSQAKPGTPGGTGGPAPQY
As to the kind of experiment: Western blot.

B1: mouse monoclonal antibody 265 (antibody, V domains shown)
VH: QQSGAELARPGASVKLSCKASGYTFTSYWMQWVKQRPGQGLEWIGAIYPGDGDTRYTQKFKGKATLTADKSSSTAYMQLSTLASEDSAVYYCARVGGWLLLAYWGQGTTVT
VL: DIVMTQSPSSLAMSVGQKVTMNCKSSQSLLNSNTQKNYLAWYQQKPGHSPKLLVYLSSTRESGVPDRFIGSGSGTDFTLTISSVQAEDLADYFCQQHYTTPLTFGAGTKLELKR
notes: Mouse monoclonal from a hybridoma; also called MAb265; MAB265
In the case of B1, the binding result was “binds”.

Source of the values: patent publication WO2008112290A2 (dated 2008).
